Measured values published in patent US7052704B2, “Methods and compositions for lipidization of hydrophilic molecules” (University of Southern California, priority 1995, dated 2006).

Key:
[1] = system: C3H 10T1/2(clone 8) cells; assay: In vitro transformation assay (MCA-induced); type: cell-based; conditions: for transformed foci in the dishes scored / Fraction of dishes containing transformed foci / No. of dishes with transformed foci/No. of dishes: MCA 1 μg/ml 24 hr, then conjugates 1.0 μg/ml for first three weeks; for Fraction of dishes containing transformed foci / No. of dishes with transformed foci/No. of dishes: scored at six weeks; for retention of the biological (anti-transformation) activity of BBI: 1.0 μg/ml
Method: Transformation assays were carried out using C3H 10T1/2(clone 8) cells according to the published recommendations [Reznikoff, C. A. et al. (1973) Cancer. Res. 33, 3239–3249; Reznikoff, C. A. et al. (1973) Cancer. Res. 33, 3231–3238]. Stock cultures of mycoplasma-free cells were maintained by passing 50,000 cells per 75 cm^2 flask every seven days. Using this schedule, the cells were always passed approximately 2 days before reaching confluence. The stock culture was grown in Eagle's basal medium supplemented with 10% FBS, penicillin (100 units), and streptomycin (100 μg) and used for the transformation assays at passages of 9 to 14. The cells were passed by treating the stock cells with trypsin (0.1%) in PBS for 5 min and quenching the trypsin with 5 ml of the medium. This procedure was adapted to minimize spontaneous transformation in the stock cultures and maximize the plating efficiency in the petri dishes. The FBS stock used in the cultures was pre-screened to ensure that the serum was able to support the expression and the growth of the transformed cells.
For the transformation assays, C3H 10T1/2 cells (1000/dish) were seeded into 60 mm petri dishes and allowed to grow in a humidified 5% CO2 atmosphere in Eagle's basal medium, supplemented with 10% FBS, penicillin (100 units), and streptomycin (100 μg), for 24 hr. Subsequently, the cells were initiated by treatment with 25 μl of the 3-methylcholanthrene (MCA) in acetone stock solution ([…]) to a final concentration of 1 μg/ml of MCA (5 μg/5 ml). The cells were allowed to grow in the presence of the carcinogen or solvent for 24 hr, and the medium in each dish was then replaced with fresh medium containing no carcinogen or solvent. The medium in the dishes was replaced twice per week for the first two weeks of the assay, and thereafter once a week for the remainder four weeks of the assay. In the experiments designed to determine the transformation inhibitory activity of the conjugates, the cells were maintained in the medium containing the conjugates (1 μg/ml) for the first three weeks of the assay; thereafter, the cells were maintained in medium containing no added conjugates.
Six weeks after the carcinogen treatment, the cells were inspected under a microscope for adherence to the culture dishes and were washed with PBS and then fixed in 100% methanol. The fixed monolayers were then stained with Giemsa stain. 20 dishes per group were treated in each experiment. In addition to the test groups, all the transformation assays contained at least three other groups: negative control (not treated with carcinogen or solvent), acetone control (treated with 25 μl of acetone), and positive control [treated with MCA (1 μg/ml) in 25 μl of acetone]. The transformed foci (>3 mm in diameter) in the plates were studied under a microscope and classified according to published guidelines as types I, II, or III [Landolph, J. R. (1985) Transfomatin assay of established cell lines: Mechanism and Application (ed. Kakunaga, T., and Yamasaki, H.) IARC Scientific Publications, Lyon, France pp. 185–201]. Briefly, type III foci were dense, multilayered, basophilic, areas of cell growth which stained to a deep blue color with Giemsa and had rough criss-crossed edges. Type II foci were also dense, multilayered, areas of cell growth, but were stained to a purple color with Giemsa and had smoother, more defined edges compared to Type III foci. Type I foci were not scored in the assay.
BBI, either as the free protein or in conjugated form to palmitic or oleic acid, was added to the cultures at 1.0 μg/ml for the first three weeks of the transformation assay period starting immediately after the MCA treatment. MCA-treated cells were exposed to 3-methylcholanthrene, dissolved in 25 /μl of acetone, at a concentration of 1 μg/ml for 24 hr. Acetone-treated cells were exposed to 25 μl of acetone for 24 hr only. […]

[2] = system: C3H 10T1/2 cells; assay: Plating efficiency in conjunction with transformation assay; type: cell-based; conditions: 200 cells/dish, 10 days; conjugates 1.0 μg/ml after MCA 1 μg/ml 24 hr
Method: The plating efficiency (PE) of the cells was also studied in conjunction with each of the transformation assays. To determine the PE of the cells in the different treatment groups, cells (200 cells/dish) were seeded into three 60-mm petri dishes per experiment group and treated in the identical manner as the transformation assay cells. The cells in these assays were terminated at 10 days, fixed with 100% methanol, and stained with giemsa; the colonies of 50 cells or more visible under a microscope were then counted. The plating efficiency is defined as the (number of colonies/number of cells seeded)*100.

[3] = system: Human colon carcinoma cells (Caco-2)
[4] = mouse, in vivo, iv, 3 mg/kg
[5] = system: Caco-2 monolayers; assay: Transport of single- and multiple-conjugates across Caco-2 monolayers in transwells; type: cell-based, Human; conditions: for order of the transport extent (cumulative transport): Caco-2 transwells, n=3
Method: Confluent cell monolayers, 2 to 3 weeks old, and having a TEER value of approximately 500 Ωcm^2, were first incubated with Dulbecco's MEM containing 1% of FBS for 30 min at 37° C. Subsequently, the incubation medium was removed, and the ^125I-BBI (10 μg/ml) conjugates in 1.5 ml of the medium was added to the apical chamber of the transwells. To the basal chamber, 2.5 ml of the medium was added and the transwells were incubated at 37° C. At predetermined times, the entire basal chamber medium (2.5 ml) from each transwell was removed and counted for radioactivity using a gamma counter. In each experiment, typically seven samples were taken at 1, 2, 3, 4, 5, 6 and 24 hr post-incubation. After the 24 hr samples were taken, the cell monolayers were rinsed three times with ice-cold PBS, cut out of the inserts, and counted for accumulated radioactivity using a gamma counter.
The integrity of the ^125I-BBI conjugates transported across the monolayers was studied using Sephadex G50 gel-filtration chromatography. Briefly, after the basal medium was sampled at 24 hr, 1.0 ml of the medium was centrifuged at 2000 rpm and then eluted from a G50 column (10 ml) using PBS; 1 ml fractions were collected and the fraction-associated radioactivity was determined using a gamma counter. Intact conjugates eluted at column void volume and fragments smaller than 1 kDa were eluted at or above the column volume.
In the transwell experiments, the conjugates were incubated with the apical side of the cells for 1 hr at 37° C. The transwells were then rinsed three times with ice-cold PBS and then reincubated with serum free medium. The release of the conjugates into the apical and the basal medium was chased for 24 hr by counting the entire basal or the apical medium at different times. The total counts obtained at the end of the chase period (transwells+media counts were added, and the release of the conjugates (% of total) at different times was calculated. To ensure that the counts obtained in the transwells at 24 hr were due to the presence of the conjugates in the cells and not non-specific binding to the plastic, the transwells were exposed to trypsin for 10 min, rinsed three times with ice-cold pbs, and subsequently counted for accumulated radioactivity.
BBI was modified with 2 or 4 palmitic acids, and the transport was determined in transwells. The cumulative transport of BBI, BBI modified with 4 palmitic acids, and BBI modified with 2 palmitic acids in Caco-2 monolayers were determined as BBI (ng/monolayer) ± SEM, n=3. The order of the transport extent was BBIssPal(4)>BBI>BBIssPal(2). The results of the internalization of the conjugates into the same cells were determined as the ng of BBI internalized per monolayer. […] The basal media obtained at 24 hr from the transwells was analyzed using a G50 column. […] However, a small, but significant, amount of the basal media of BBIssPal(2) consisted of intact conjugate. This quantity consisted of between about 10 and about 20% of the total radioactivity present in the basal medium.

Row | Molecule | transformed foci in the dishes scored [1] | Fraction of dishes containing transformed foci [1] | No. of dishes with transformed foci/No. of dishes [1] | Plating Efficiency (%) [2] [%] | retention of the biological (anti-transformation) activity of BBI [1] | binding to BSA [3] | internalization, fold increase over that of BBI [3] [fold] | reduction of uptake after reduction with DTT [3] | reduction of uptake by defatted-BSA [3] [%] | uptake, fold higher than 125I-BBI [3] | uptake, fold higher than native-BBI [3] [fold] | uptake, fold higher than that of 125I-BBI [3] [fold] | kidney clearance, fold lower than native-BBI [4] | liver accumulation, fold higher than BBI [4] | lung accumulation, fold higher than BBI [4] | retention in the liver at 24 hr [4] | blood levels, fold higher than BBI [4] | order of the transport extent (cumulative transport) [5] | transcytosis across the monolayers (G50 analysis of basal media) ([5]; basal media at 24 hr) | internalization into the cells (rank) ([5]; same Caco-2 monolayers, per monolayer)
1 | Cc1ccc2cc3c(ccc4ccccc43)c3c2c1CC3 [MCA, 3-methylcholanthrene, reference compound] | 6 out of the 19 dishes scored contained type III foci | 0.32 | 6/19 | 21 ± 3.0 | – | – | – | – | – | – | – | – | – | – | – | – | – | – | – | –
2 | BBIssPal: palmityl disulfide conjugate of BBI, made from thiolated BBI and Pal-PDC (conjugate, UniProt P01055 40-110, looked up, palmityl disulfide conjugate, palmityl disulfide conjugate of BBI, made from thiolated BBI and Pal-PDC) Bowman-Birk type proteinase …: DDESSKPCCDQCACTKSNPPQCRCSDMRLNSCHSACKSCICALSYPAQCFCVDITDFCYEPCKPSEDDKEN | one type II focus out of the 20 dishes | 0.05 | 1/20 | 23 ± 3.0 | retained the original biological activity of BBI | binds strongly to BSA | 35 | approximately 80% | 82 | approximately 100 fold | 10 | 80 | about 4 fold | approximately 5 fold | approximately 2 fold | remained high in the liver even at 24 hr post-injection | – | – | – | –
3 | BBIssOleic: oleic acid conjugated BBI, made by the identical procedure as BBIssPal (conjugate, UniProt P01055 40-110, looked up, oleic acid disulfide conjugate, oleic acid conjugated BBI, made by the identical procedure as BBIssPal) Bowman-Birk type proteinase …: DDESSKPCCDQCACTKSNPPQCRCSDMRLNSCHSACKSCICALSYPAQCFCVDITDFCYEPCKPSEDDKEN | no transformed foci | 0 | 0/20 | 24 ± 3.5 | retained the original biological activity of BBI | – | – | – | – | about 108 fold | – | – | about 4 fold | about 4 fold | about 2 fold | significant levels of the conjugate present in the liver even at 24 hr post-injection | about 4 fold | – | – | –
4 | BBIssPal(2): BBI modified with 2 palmitic acids (conjugate, UniProt P01055 40-110, looked up, 2 palmityl disulfide groups, BBI modified with 2 palmitic acids) Bowman-Birk type proteinase …: DDESSKPCCDQCACTKSNPPQCRCSDMRLNSCHSACKSCICALSYPAQCFCVDITDFCYEPCKPSEDDKEN | – | – | – | – | – | – | – | – | – | – | – | – | – | – | – | – | – | BBIssPal(4)>BBI>BBIssPal(2) | – | –
5 | BBIssPal(4): BBI modified with 4 palmitic acids (conjugate, UniProt P01055 40-110, looked up, 4 palmityl disulfide groups, BBI modified with 4 palmitic acids) Bowman-Birk type proteinase …: DDESSKPCCDQCACTKSNPPQCRCSDMRLNSCHSACKSCICALSYPAQCFCVDITDFCYEPCKPSEDDKEN | – | – | – | – | – | – | – | – | – | – | – | – | – | – | – | – | – | BBIssPal(4)>BBI>BBIssPal(2) | neither BBI nor BBIssPal(4) was transcytosed | highest uptake
